Our source for the abundance fitness values is the Human Domainome abundance scans (Beltran et al. 2025).

The labels stand for the following.
B1: POU domain, class 3, transcription factor 2, residues 262 to 338; numbered along this chain, P20265 (parent)
chain: EDTPTSDDLEQFAKQFKQRRIKLGFTQADVGLALGTLYGNVFSQTTICRFEALQLSFKNMCKLKPLLNKWLEEADSS

± gives the uncertainty stated by the source.

Variants of B1 are the subject of this series. The series is described as follows: abundance fitness (aPCA) (normalised: wild type 0, dead -1); higher = more abundant; growth selection in yeast, the domain comes from the species named. The conditions noted are these: Homo sapiens.
As to EDTPTSDDLEQFAKQFKQHRIKLGFTQADVGLALGTLYGNVFSQTTICRFEALQLSFKNMCKLKPLLNKWLEEADSS, the abundance fitness was -0.047 ± 0.067.

With EDTPTSDDLEQFAKQFKQCRIKLGFTQADVGLALGTLYGNVFSQTTICRFEALQLSFKNMCKLKPLLNKWLEEADSS, the abundance fitness was -0.162 ± 0.054.

Regarding EDTPTSDDLEQFAKQFKQWRIKLGFTQADVGLALGTLYGNVFSQTTICRFEALQLSFKNMCKLKPLLNKWLEEADSS, the abundance fitness was -0.379 ± 0.043.

On to EDTPTSDDLEQFAKQFKQTRIKLGFTQADVGLALGTLYGNVFSQTTICRFEALQLSFKNMCKLKPLLNKWLEEADSS, for which the abundance fitness is -0.049 ± 0.047.

On to EDTPTSDDLEQFAKQFKQNRIKLGFTQADVGLALGTLYGNVFSQTTICRFEALQLSFKNMCKLKPLLNKWLEEADSS, for which the abundance fitness was -0.182 ± 0.095.

As to EDTPTSDDLEQFAKQFKQARIKLGFTQADVGLALGTLYGNVFSQTTICRFEALQLSFKNMCKLKPLLNKWLEEADSS, the abundance fitness was -0.057 ± 0.036.

For EDTPTSDDLEQFAKQFKQDRIKLGFTQADVGLALGTLYGNVFSQTTICRFEALQLSFKNMCKLKPLLNKWLEEADSS, the abundance fitness was -0.334 ± 0.11.

Regarding EDTPTSDDLEQFAKQFKQQRIKLGFTQADVGLALGTLYGNVFSQTTICRFEALQLSFKNMCKLKPLLNKWLEEADSS, the abundance fitness was -0.113 ± 0.048.

Take EDTPTSDDLEQFAKQFKQYRIKLGFTQADVGLALGTLYGNVFSQTTICRFEALQLSFKNMCKLKPLLNKWLEEADSS: the abundance fitness is -0.695 ± 0.33.

For EDTPTSDDLEQFAKQFKQERIKLGFTQADVGLALGTLYGNVFSQTTICRFEALQLSFKNMCKLKPLLNKWLEEADSS, the abundance fitness was -0.116 ± 0.039.

As to EDTPTSDDLEQFAKQFKQGRIKLGFTQADVGLALGTLYGNVFSQTTICRFEALQLSFKNMCKLKPLLNKWLEEADSS, the abundance fitness is -0.308 ± 0.034.

With EDTPTSDDLEQFAKQFKQFRIKLGFTQADVGLALGTLYGNVFSQTTICRFEALQLSFKNMCKLKPLLNKWLEEADSS, the abundance fitness is -0.439 ± 0.09.

In the case of EDTPTSDDLEQFAKQFKQKRIKLGFTQADVGLALGTLYGNVFSQTTICRFEALQLSFKNMCKLKPLLNKWLEEADSS, the abundance fitness stood at 0.035 ± 0.051.

For EDTPTSDDLEQFAKQFKQVRIKLGFTQADVGLALGTLYGNVFSQTTICRFEALQLSFKNMCKLKPLLNKWLEEADSS, the abundance fitness was -0.194 ± 0.033.

Take EDTPTSDDLEQFAKQFKQIRIKLGFTQADVGLALGTLYGNVFSQTTICRFEALQLSFKNMCKLKPLLNKWLEEADSS: the abundance fitness is -0.196 ± 0.073.

In the case of EDTPTSDDLEQFAKQFKQSRIKLGFTQADVGLALGTLYGNVFSQTTICRFEALQLSFKNMCKLKPLLNKWLEEADSS, the abundance fitness was -0.187 ± 0.039.

Regarding EDTPTSDDLEQFAKQFKQMRIKLGFTQADVGLALGTLYGNVFSQTTICRFEALQLSFKNMCKLKPLLNKWLEEADSS, the abundance fitness is -0.1 ± 0.049.

As to EDTPTSDDLEQFAKQFKQPRIKLGFTQADVGLALGTLYGNVFSQTTICRFEALQLSFKNMCKLKPLLNKWLEEADSS, the abundance fitness is -0.961 ± 0.17.

In the case of EDTPTSDDLEQFAKQFKQRSIKLGFTQADVGLALGTLYGNVFSQTTICRFEALQLSFKNMCKLKPLLNKWLEEADSS, the abundance fitness is -0.694 ± 0.084.

For the variant EDTPTSDDLEQFAKQFKQRIIKLGFTQADVGLALGTLYGNVFSQTTICRFEALQLSFKNMCKLKPLLNKWLEEADSS, the abundance fitness was -0.794 ± 0.31.

Consider EDTPTSDDLEQFAKQFKQRFIKLGFTQADVGLALGTLYGNVFSQTTICRFEALQLSFKNMCKLKPLLNKWLEEADSS, for which the abundance fitness is -1.03 ± 0.41.

Take EDTPTSDDLEQFAKQFKQRDIKLGFTQADVGLALGTLYGNVFSQTTICRFEALQLSFKNMCKLKPLLNKWLEEADSS: the abundance fitness is -1.05 ± 0.24.

Take EDTPTSDDLEQFAKQFKQRWIKLGFTQADVGLALGTLYGNVFSQTTICRFEALQLSFKNMCKLKPLLNKWLEEADSS: the abundance fitness is -0.909 ± 0.096.

Consider EDTPTSDDLEQFAKQFKQRTIKLGFTQADVGLALGTLYGNVFSQTTICRFEALQLSFKNMCKLKPLLNKWLEEADSS, for which the abundance fitness was -1.13 ± 0.19.

With EDTPTSDDLEQFAKQFKQRVIKLGFTQADVGLALGTLYGNVFSQTTICRFEALQLSFKNMCKLKPLLNKWLEEADSS, the abundance fitness was -0.728 ± 0.059.

Turning to EDTPTSDDLEQFAKQFKQRQIKLGFTQADVGLALGTLYGNVFSQTTICRFEALQLSFKNMCKLKPLLNKWLEEADSS, the abundance fitness is -0.87 ± 0.16.

As to EDTPTSDDLEQFAKQFKQRYIKLGFTQADVGLALGTLYGNVFSQTTICRFEALQLSFKNMCKLKPLLNKWLEEADSS, the abundance fitness was -0.63 ± 0.17.

Regarding EDTPTSDDLEQFAKQFKQREIKLGFTQADVGLALGTLYGNVFSQTTICRFEALQLSFKNMCKLKPLLNKWLEEADSS, the abundance fitness is -0.712 ± 0.079.

Take EDTPTSDDLEQFAKQFKQRKIKLGFTQADVGLALGTLYGNVFSQTTICRFEALQLSFKNMCKLKPLLNKWLEEADSS: the abundance fitness is -1.25 ± 0.35.

As to EDTPTSDDLEQFAKQFKQRAIKLGFTQADVGLALGTLYGNVFSQTTICRFEALQLSFKNMCKLKPLLNKWLEEADSS, the abundance fitness was -1.05 ± 0.1.

EDTPTSDDLEQFAKQFKQRGIKLGFTQADVGLALGTLYGNVFSQTTICRFEALQLSFKNMCKLKPLLNKWLEEADSS: the abundance fitness is -0.938 ± 0.065.

Take EDTPTSDDLEQFAKQFKQRHIKLGFTQADVGLALGTLYGNVFSQTTICRFEALQLSFKNMCKLKPLLNKWLEEADSS: the abundance fitness is -1.02 ± 0.3.

On to EDTPTSDDLEQFAKQFKQRLIKLGFTQADVGLALGTLYGNVFSQTTICRFEALQLSFKNMCKLKPLLNKWLEEADSS, for which the abundance fitness was -0.766 ± 0.066.

As for EDTPTSDDLEQFAKQFKQRNIKLGFTQADVGLALGTLYGNVFSQTTICRFEALQLSFKNMCKLKPLLNKWLEEADSS, the abundance fitness is -1.09 ± 0.4.

For EDTPTSDDLEQFAKQFKQRMIKLGFTQADVGLALGTLYGNVFSQTTICRFEALQLSFKNMCKLKPLLNKWLEEADSS, the abundance fitness is -1.29 ± 0.3.
